Data reported in publication PMC8000724, “Trans-Epithelial Transport, Metabolism, and Biological Activity Assessment of the Multi-Target Lupin Peptide [sequence] (P5) and Its Metabolite [sequence] (P5-Met)” (Nutrients, 2021).

How the values were obtained:
[1] = target: 3-hydroxy-3-methylglutaryl coenzyme A reductase (HMGCoAR), catalytic domain; assay: cell-based or functional assay
[2] = target: T1, proprotein convertase subtilisin/kexin type-9 (PCSK9), His-tagged (UniProt Q8NBP7 31-692); assay: ELISA; CircuLex in vitro PCSK9-LDLR binding assay kit; plate pre-coated with recombinant LDLR-AB domain; peptide (0.1-100 uM) in reaction buffer, then His-tagged PCSK9 added; 2 h at room temperature; detected with biotinylated anti-His-tag antibody, HRP-streptavidin and TMB, absorbance at 450 nm; conditions: both partners purified
T1 construct: PCSK9, recombinant His-tagged protein of the kit; The functional rows use this molecule; also called His-tagged PCSK9
T1 sequence (Q8NBP7 31-692): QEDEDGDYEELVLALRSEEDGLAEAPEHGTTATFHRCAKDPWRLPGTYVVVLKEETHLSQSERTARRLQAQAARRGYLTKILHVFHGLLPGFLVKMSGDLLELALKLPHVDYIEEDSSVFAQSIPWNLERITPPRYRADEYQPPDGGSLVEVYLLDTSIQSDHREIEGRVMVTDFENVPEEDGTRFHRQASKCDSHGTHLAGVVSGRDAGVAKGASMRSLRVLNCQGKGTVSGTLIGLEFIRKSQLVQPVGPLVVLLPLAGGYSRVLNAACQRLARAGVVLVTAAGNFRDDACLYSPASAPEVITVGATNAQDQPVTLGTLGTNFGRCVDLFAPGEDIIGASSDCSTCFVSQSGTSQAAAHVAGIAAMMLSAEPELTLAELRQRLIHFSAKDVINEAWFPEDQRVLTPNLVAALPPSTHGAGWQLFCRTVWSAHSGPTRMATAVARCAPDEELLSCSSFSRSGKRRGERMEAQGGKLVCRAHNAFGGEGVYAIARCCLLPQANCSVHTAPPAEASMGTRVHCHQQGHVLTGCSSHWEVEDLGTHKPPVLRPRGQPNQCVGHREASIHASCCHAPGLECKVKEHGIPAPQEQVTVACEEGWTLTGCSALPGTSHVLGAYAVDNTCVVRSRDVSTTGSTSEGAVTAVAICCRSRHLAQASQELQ

Sequence of 3-hydroxy-3-methylglutaryl coenzyme A reductase (HMGCoAR), catalytic domain (P04035 whole entry, the tested form may be a part): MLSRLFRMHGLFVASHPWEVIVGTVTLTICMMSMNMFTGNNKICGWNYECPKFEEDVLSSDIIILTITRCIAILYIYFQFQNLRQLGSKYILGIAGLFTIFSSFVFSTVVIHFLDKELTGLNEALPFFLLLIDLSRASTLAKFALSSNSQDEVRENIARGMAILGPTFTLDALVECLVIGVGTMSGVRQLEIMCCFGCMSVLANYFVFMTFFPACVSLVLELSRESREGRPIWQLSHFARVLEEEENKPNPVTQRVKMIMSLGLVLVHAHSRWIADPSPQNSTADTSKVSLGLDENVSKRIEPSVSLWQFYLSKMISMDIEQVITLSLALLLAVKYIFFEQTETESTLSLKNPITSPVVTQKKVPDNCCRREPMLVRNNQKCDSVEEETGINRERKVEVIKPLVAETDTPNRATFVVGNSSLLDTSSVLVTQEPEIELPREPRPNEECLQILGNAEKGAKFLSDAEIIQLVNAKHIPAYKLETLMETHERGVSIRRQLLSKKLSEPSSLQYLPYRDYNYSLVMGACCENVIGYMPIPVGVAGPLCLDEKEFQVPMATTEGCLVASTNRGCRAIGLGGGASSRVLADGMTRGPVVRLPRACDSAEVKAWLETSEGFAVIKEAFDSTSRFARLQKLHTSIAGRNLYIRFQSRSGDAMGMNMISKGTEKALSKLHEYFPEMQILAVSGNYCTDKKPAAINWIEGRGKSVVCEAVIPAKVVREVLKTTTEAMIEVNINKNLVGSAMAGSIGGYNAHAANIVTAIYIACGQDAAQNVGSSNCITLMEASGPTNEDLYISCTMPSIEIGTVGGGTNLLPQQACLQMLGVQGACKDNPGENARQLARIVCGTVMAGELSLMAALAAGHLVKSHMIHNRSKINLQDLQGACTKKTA

| Binder | in vitro HMGCoAR activity (NADPH oxidation, absorbance at 340 nm, 37 °C), peptide 10-500 µM; IC50 [1] [µM] | IC50 [2] [µM] |
| --- | --- | --- |
| LPKHSDAD (source: synthetic peptide (GeneScript, >95% purity)) [P5-met (LPKHSDAD), metabolite of lupin peptide P5] | 175 | 1.7 |
| LILPKHSDAD (peptide from the peptic hydrolysate of lupin protein; also called parent peptide; source: synthetic peptide (GeneScript, >95% purity)) [lupin peptide P5 (LILPKHSDAD)] | 147 | 1.3 |
